Reference: the DeepSol protein solubility set

Assay: soluble on expression in E. coli; label from the status in PepcDB or PDB records

Row | Sequence | soluble on expression in E. coli
1 | MSLRCLVTGATGYVGGRLVPELLDAGHRVRCLARSPDRLRDHPWAGKAEVVRGDVTDADSVARAMEGVDVAYYLVHALGSGDDFEATDRRAARTFAERAAAAGVRRIVYLGGLTPAGVPEGELSPHLRSRTEVGRILLASGVPTTVLRAAVVIGSGSASFEMLRYLTERLPVMVTPSWVHTRIQPVAVRDVLRALVGSATMPREVSRTFDVGGPDILTYREMMERYARVAELPRRLILPVPMLSPGLSSHWVGLVTPVPAAIARPLTESLRHEVVCGENDIVRYVPPPPGYPLGFDDALRLALQRVREARVTTRWSSASVPGAPSDPLPTDPDWAGGSLYTDDRALGVDAPPDALWRVVEGIGGDHGWYSFPLAWAVRGWLDRLVGGVGLRRGRRDAARLRVGDSLDFWRVEEIVPGRLLRLRAEMRLPGLAWLEMYAETDDAGRTRYRQRALFHPHGLAGHAYWWSVSPFHAVVFGGMARNIARAAARAAEGHHHHHH | not soluble
2 | MNDHKALKIFLMAAEKRNFAQVARELSMTAAGVTRAIAALECDLGVQLFVRTTRQVSLTTDGAVFAAQIQPAVEALENARRDVRNAHKADEGRLRISAPTWLGKTVLPPILSGFRELYPKMCFEISLSDGLVNIVDDDYDLAIRISSAPSDKFTIWRKIRAVPRILVAAPGSRFTQMKHPSDLTPDDCLAYSGESRRENWILSDGGSSITITAGRAFSANNGEVLADMAADGAGVAMLPGFHIAEHIRSGRLVHVLPGWAPPELWLTLYYPPYQTLPPRIATFSKFFEEQLTAHMVALD | not soluble
3 | MAPRSILITGANRGIGLGLVKQFLKNEGIQLVIATCRNPSKADELNSIADSRLQIFPLEIDCDDSIKKLYENVDTLVGTDGLTVLINNAAICSVYEIEGQISRTYMRQQIETNSVSTAILTQNFIPLLKKASAKNGGEEYSTDRAAIVNISSGAASIGYIDDKQPGIYIAYRMSKSALNSFSKSCSVELAKYHILVTAMCPGWVKTDMGGENGWEEVDDATEKIMKSILKLGAAQHGAFINSSLEVYPN | not soluble
4 | SDSAWTALDMETQTMLKTAIKDPKTVDLEKLSNAVVEHSLKDLSFCKDAGRMCYAVVQAEAQKTASSVFRRNLLNRLQQEFIAREETRKRSMQEWVCVVTFICSIFDYIKVNNSPIAALVDPVYDCLFRLAQPDSLMNEEEVDCLVVQLHRVGEQLEQTNSERMNQLFYLLRDGFLLQEDLSSMTRLLLLEILEFRASGWTLSETAHKYYYSEVAD | soluble
5 | STSTNNELTVSMMGTSTKEEVVSKVDEEDDDSSSDSDMDYGSDSEWAGYNVLAETEPEWDVDSFDGHEFKINPRVRQMYRSQELYDKYYNNRLKAFENKGFLSDHLNGIYDVYLDEKMDGYNSTRDFMAELANVCVKKHNETKGNTLELVNVVRATERGAATWRLYITFMAREFPDGPLVEYQAKVIKFLGVKDPFPVLCRAAPKPGI | soluble
6 | MSTIELNKRQEHILQIVKENGPITGEHIAEKLNLTRATLRPDLAILTMSGFLEARPRVGYFYTGKTGTQLLADKLKKLQVKDFQSIPVVIHENVSVYDAICTMFLEDVGTLFVVDRDAVLVGVLSRKDLLRASIGQQELTSVPVHIIMTRMPNITVCRREDYVMDIAKHLIEKQIDALPVIKDTDKGFEVIGRVTKTNMTKILVSLSENEILAAAAAALEHHHHHH | soluble
7 | TQYWDFCFREPDVAATDQEYREELDRLFVQAVKRQLVTDVELGSYLSGGMDSGSIAAVAAAEHPYIKTFTCGFDLNSASGIELGFDERSKAEYMSYCFKTEHYEMVLKAGDMERILPHVACHLEEPRVGQSYPNFFAAKLASRFVKVVLSGAGGDELFAGYPWRYYRAVVNDDFEHYVDKYYNFWQRLLPNSELKRVFAPIAGEVEHVWTRDIFRNVFRHHADQLYRPEDYINHSLYFEAKTFLHGLLVVEDKLSMAHGLETRVPFLDNDLVEFAMRCPIRLKLNNLAEVVKINENETGNKVRKFFEKNRDGKTILREVMNHRLPADISKAEKQGFSAPDASWFKGESLEFVRRKLLDGHSPLYEIMDAATVRELVNEHLGGIRNRRLLIWSLLSVDAWMRQT | not soluble
8 | MRRSNEPTKRKSTTGHGDYAEHKKRKSMSKEATPVLEENLTPDVMINNLHEIVTQILENQELPETAIIELEGFDATAATMEEYMQKREETRKLVTDSEFFDQKTELNLSVASLAGAQVEVDKRVTTRGMSRKLHDECGINEKDILYQGLDYHGTESRVSKELRDSRQASIIESCVDFQKQIQWKIGIMEKVKAKSGRSYPMSDGPSVRTRGGQDKQREEMKKQQKELEKSKKQRKTRAAGEQDPFKTPQKKIEFNALDERRIIENYQLEVASEIRTHRPFLSRSIAPVPFNIDILDDEEEEMEIS | not soluble
9 | MSPNHVDHLVLPVAQIDIATARLANLGFTVAPLAVHPFGTANACVFLADGTYLEPLAVNDPAKYGESANRGDVFTGRDRAFRESCGPEGFSALVARSGDAFVDHERFVAAGLSAGDLFEFSRPVQMPDGSRSEAAFRLAFAASGAAADFFLFGCQRLKALPGDRTELERHANAVTGLFEIVLFSGGDAKAARLIETVFGCKSAMSPGGDMVFATGNARIRLTEKPAVADLDLNTSNRGDGGLRGAGIVFSVTDLAVTAAVLAANGVSSMEAGGRLVVPAAPGQGVAFAFEEI | not soluble
10 | MLASIVISSVHSIGTGALECRATHRGHRAGPYLSSSETRHRAAISGTVDMRETKQGLRHSGRSPSVASPKIDELIGRPQPDTIRLSRGRPVRNS | not soluble
11 | MGSDKIHHHHHHMDAIVNTVNCVGVMGKGIALQFKNKWPANYSAYEAACKAKQVRPGTMFVFDSGGLVKPNYIINFPTKDHWRGKSRVEFIRDGLVDLVAQVKRLGIRSIAIPPLGCGNGGLEWDEVRPLIEQAFAVLPDVEVRLFAPAGAPDPKSMEVKTSRPKMTAGRAAILKVLDTYRSLEYGLSRIEVQKLAYFLQEAGESLSLSFVKNQYGPYSDQLRHALNRMEGHFIRGLGDGVVDAEIEPLEDALAEAEQYVSASGHAALARHVERVANLIEGFQTPYGMELLATVHWVATHEPTAHSFDQVVSAVHAWNERKARIMQPAHVRAAWSRLDAQGWL | not soluble
12 | MDATDDIRAGELASDWSGSPDAGVVFIGRIHTPWNRLKECPRHGRADGPVCRIEVFETWLPALAGIDDGTLLEVFYWLHRSRRDLLLQCPRNDGDARGTFSIRSPLRPNPIGTSIARVDRRDGANLFIRGLDCLDGTPLVDLKPDRAEFMPLAPPKPGDFQVGEPRR | soluble
13 | MGSDKIHHHHHHMSADIVFDRGSPSDIDEIKTFTSNTWKVGYYTDLYSKLADTGTMDDYVDKVIERWVNDGSVYVLRVSGRPVATIHMEKLPDGSVMLGGLRVHPEYRGSRLGMSIMQETIQFLRGKTERLRSAVYSWNEPSLRLVHRLGFHQVEEYPIYTFQGGSTAVPALKPVNERYAGRWRCFFIDWKYMCSDDPDIIHEEYSNNLIVDGSTFVYFDIYEGGIDLFVNDSDDASSFIEKYRSMNGRITFYVRKALANGLPYVPASSLTVWEYRY | not soluble
14 | MVKIIENKLIDAEPLKDAVLIEGLPGIGHVGRVAAEHIVEEFNGEKVLELYCDDFPPQIVVKNDGTIEYMKNEFYLVKEPVPMVIVLGNTQALSPKGQYVLSEKIVDIAMKYGATKTYTLGGFGIGKISDELKVYVASTSKELSEQHKELGAEFRTDGGSIIGAAGLMLKFSKLKGIEGICLMGETPGYLVDPKSAGNVLEMLSKAIGFEIDMKKLDERAKEMEKFIEKVQMQEQGMQAPQHQDDLSYIG | not soluble
15 | MGSDKIHHHHHHMSSQTTALNSGVHAKKADIFCQDEARVDWHSKALWVLREKRDRAAASLPEWEQLRQLGSEMKLHTLTHLGEYLETFEKNCQANGIVVHWAKDGAEHNQIVHNILAKHQVKKLVKSKSMLTEECHLNPYLESKGIEVIDTDLGERIIQLAKQPPSHIVVPAIHLKKEEVGDLFHDKLGTEAGASDPLYLTRAARAHLREQFLSADAAMTGVNMAIADKGAVVVCTNEGNADMGANLPKLQLHSMGIDKIVPDLDSAAILLRTLARNATGQPITTYSSFYRGPQDGGEMHVIIVDNGRTDMLQDKILAESLKCIRCGGCLNTCPVYRRSGGYSYNYTIPGPIGIAVGAQADDTHSIPWACTLCGSCSYVCPTKVPLDKIIHHHRRLKAKAGKLPYGKRNYMPLVGNFMASETMLNCSMSVARTALRILPGSLLKPFSGAWGKYRELPVAPKSSFEAWFNKNRGQ | not soluble
